The values that follow come from patent US20050019808A1 (WISCONSIN ALUMNI RESEARCH FOUNDATION, published 2005).

Series [1] deals with the molecule itself. Kind of series: SDS-PAGE and Western, self-association (results not shown).
Another series has as its target T1, B23 (nucleophosmin) (UniProt P06748 1-294).
T1 construct: Endogenous protein of HeLa cells; also called protein B23; ribosomal chaperone protein B23
Kind of series: mobility shift, 4% native PAGE, Western with Ab-B23; not sensitive to RNaseA.

Series [2] concerns the molecule itself. Description: SDS-PAGE and Western, self-association (dimer).

T1 sequence (P06748 whole entry): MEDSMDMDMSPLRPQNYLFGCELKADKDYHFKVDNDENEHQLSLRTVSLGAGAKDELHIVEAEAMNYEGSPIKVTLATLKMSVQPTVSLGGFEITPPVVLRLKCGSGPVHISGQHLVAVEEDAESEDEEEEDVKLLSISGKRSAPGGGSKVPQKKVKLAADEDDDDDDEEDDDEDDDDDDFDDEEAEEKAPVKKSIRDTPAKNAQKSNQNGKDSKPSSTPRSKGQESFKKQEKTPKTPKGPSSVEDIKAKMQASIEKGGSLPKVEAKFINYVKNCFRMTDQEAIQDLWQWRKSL

B1: recombinant Mengo 2B protein (other)
chain: PFTFKPRQRPVFQTQGAAVSSMAQTLLPNDLASKAMGSAFTALLDANEDAQKAMKIIKTLSSLSDAWENVKGTLNNPEFWKQLLSRCVQLIAGMTIAVMHPDPLTLLCLGVLTAAEITSQTSLCEEIAAKFKTIFTTPPPRFPVISLFQQQ
notes: domain: 2B; also called recombinant 2B protein
For the molecule B1, the binding result in series [1] is listed as “binds”.

B2: recombinant Mengo 2A protein (other)
chain: SPNPLDVSKTYPTLHILLQFNHRGLEARIFRHGQLWAETHAEVVLRSKTKQISFLSNGSYPSMDATTPLNPWKSTYQAVLRAEPHRVTMDVYHKRIRPFRLPLVQKEWRTCEENVFGLYHVFETHYAGYFSDLLIHDVETNPG
notes: domain: 2A; also called r2A; recombinant 2A
As for B2, the binding result (with B23 (nucleophosmin); in series [2]) was “binds” throughout.
